In PMC9695642, “Conservation of Importin α Function in Apicomplexans: Ivermectin and GW5074 Target Plasmodium falciparum Importin α and Inhibit Parasite Growth in Culture” (International Journal of Molecular Sciences, 2022):

Assays:
[1] = target: His-tagged GCN5-NLS-GFP (NLS of T. gondii histone acetyltransferase GCN5 fused to GFP) (Toxoplasma gondii); assay: AlphaScreen or HTRF; biotinylated IMPαs titrated against His-tagged NLS-GFPs (30 nM); apparent dissociation constant
[2] = target: His-tagged TGS1-NLS-GFP (NLS of P. falciparum trimethylguanosine synthase fused to GFP) (Plasmodium falciparum); assay: as above

B1: Plasmodium falciparum importin α, biotinylated GST fusion protein (natural protein)
chain: MDRRIEARRKEFKKNCDDTRRKREDLVVQIRKQQRECQLESKRAMVMANIGFEENNTYNLNYAKGNQNDSTNDSIYNTSSNNSSNTLEMLKKIPTLAIGVRSNEYVTQLNSTRELRKLLSIEKGPPIQEVINSGVVPYIVEFLKYDDKTDLQFEAAWVITNIASGSQEQTKVVIDNNAVPHLVRLLSSEKEDVCEQAVWALGNIAGDSAECREYVLNQNSLPLLLKILRTSHKRTLIRNAAWTLSNLCRGKPAPKFEIVSKALPTLAALIYNDDEEILTDACWTLSYLSDGSNENINSVLDAGVAERVVELLSHCSFLVQTPALRTVGNIVTGDDLQTDVVVKLGAVQKLSCLLNSSKKSIKKEACWALSNITAGNISQIQAVIDNNVIPQLINILMKEDFEVRKEAAWAISNASSGGSELQIEYLVECGAIHSLSNLLDVEDANIISVTLEGLENILEMGENKKLRDNLPTNPYVHLFEECDSVHKIDALQDRKVDNICNKAWKILYKYFPFVINNELNNAQIPLNNVFANTEDAVLNKDFTFD
modifications: biotin (Sulfo-NHS-Biotin reagent)
- Kd [1]: 2.5 nM
- Kd [2]: 6.6 nM
